For one molecule, Kd results are on record in patent US20110020786A1, “PEPTIDE DENDRIMERS: AFFINITY REAGENTS FOR BINDING NOROVIRUSES” (BAYLOR COLLEGE OF MEDICINE, priority 2007, published 2011).

The Kd is a measure of binding affinity in units of concentration. The low end stands for tighter binding, the high end for weaker binding.

This test addresses NoVLPs (Norovirus-like particles) (so in the source). The experiment in a line: SPR (BIAcore), NoVLPs immobilized, dendrimer injected at 8-240 µM, steady-state fit of the equilibrium average response. A general note: Surface plasmon resonance follows binding to a sensor surface in real time, without labels.

Ends that are not written are not given here.

B1: …8 (the octovalent dendrimer of SEQ ID NO: 1) (peptide)
peptide: RHFQTHTVPLSL
modifications: also: octovalent MAP dendrimer, eight copies on branching lysine core
For the molecule B1, the dissociation constant (Kd) turned out to be 117 µM.
